Source: patent US20250064890A1, “PROTEIN COMPOSITIONS FOR THE TREATMENT OF INFLAMMATORY DISEASES” (Unichem Laboratories Limited, priority 2021, published 2025)

Columns and labels:
[1] = Body weight change in 5-FU induced OM hamsters; assay type: in vivo, golden Syrian hamsters; details: Day 4 to Day 12, with respect to Day 4
Description: In-vivo experiments conducted in healthy golden Syrian hamsters wherein animals were grouped as below:
To induce OM, animals were administered (except normal control) 5-Fluorouracil (5-FU) by intraperitoneal route at doses of 60 mg/kg & 40 mg/kg respectively on first two days. On Day 4, under anesthesia, with aim of enhancing OM, mechanical irritation of the oral mucosa were done using wire brush. Treatment was initiated from Day 4 to Day 12. For group 3 animals 100 μl of vehicle comprising of standard drug Dexamethasone at 0.1 mg was instilled in buccal cheek pouch. For group 4, 5 and 6 animals 100 μl of vehicle comprising of SEQ ID NO. 2 at 0.25 mg, 0.5 mg & 1 mg, respectively was instilled in buccal cheek pouch. At the end of treatment period, cheek pouch of the hamsters was exposed, Mucositis scoring was carried out and images were captured. The animals were then humanely sacrificed, cheek pouch/jugular mucosa were isolated and used for biomarker estimation and histopathological investigation by using ELISA method and Hematoxylin and Eosin (H&E) staining, respectively.
Body weight of each animal was recorded daily till the end of experiment. Percentage change in body weight of the animals was calculated by using formula with respect to Day 4.

[2] = test system: oral (buccal) mucosa cells (TR146); assay: Restoration of mitochondrial membrane potential (JC-1) against 5-FU induced damage; assay type: cell-based, human; details: for MMP: mitochondrial membrane potential, red/green JC-1 fluorescence ratio
Description: Oral buccal mucosal cells (TR146) were incubated overnight in 5% CO2 incubator at 37° C. for 24 h. […] After 24 h of treatment, cells were exposed to damage (5-FU 5 mM) for 1.25 h for chemotherapy induced inflammation and exposed to gamma radiation (3.5 kGy) using Cobalt 60 for radiation induced inflammation. After the exposure, the anti-apoptotic effect of SEQ ID NO 2 was determined by restoration of mitochondrial membrane depolarization by JC-1 staining and reduction in apoptotic cell populations (Annexin positive and subG0/G1 cells in cell cycle analysis).
After incubation, the supernatants were discarded and 100 μl of JC1-dye solution (prepared by diluting 1 mM DMSO stock into 10 μM in 1×PBS) was added to each well. The cells were then incubated with the dye in CO2 incubator at 37° C. for 15 min, after which the supernatant was removed, and the cells were washed twice with 1×PBS. 100 μl of 1×PBS was finally added to each well. Red fluorescence (excitation 550 nm, emission 600 nm) and green fluorescence (excitation 485 nm, emission 535 nm) were measured using Biotek Synergy HT plate reader. The mitochondrial membrane potential (Δψm) was calculated as the ratio of intensity of red fluorescence to intensity of green fluorescence.
The percentage increase/restoration in mitochondrial membrane potential (MMP) was calculated as: % Increase=[(R−X)/R]*100 • Where, X=Δψm corresponding to TI+5-FU treated cells or TI+radiation treated cells; R=Δψm corresponding to control cells (FU damaged or Radiation damaged alone)

IL-1β = assay: Multiplex analysis, chemotherapy (5-FU), TR146; assay type: cell-based, human; details: for IL-1-β against chemotherapy induced levels: 5-FU, in words
Description: (§1) Oral buccal mucosal cells (TR146) cells were incubated overnight at 37° C. in 5% CO2 incubator. […] The cells were then stimulated with 5-FU (10 mM) for another 24h for chemotherapy and with gamma radiation (3.5 kGy) using Cobalt 60 for radiotherapy. After 24 h, cell culture supernatants were collected from each well and stored at −20° C. till multiplex analysis. For NF-kB estimations, cell lysates were prepared. Levels of biomarkers were estimated using Magpix® multiplex machine. The cells treated with Amifostine (along with 5-FU or radiation) were considered as positive control (PC). Untreated cells (5-FU or radiation alone treated) were used as negative control (NC).
(§2) The percent modulation in each sample was determined as follows:
(§3) [{Concentration of biomarkers (pg/ml) in Control cells (5-FU or radiation alone treated)−Concentration of biomarkers (pg/ml) in SEQ ID NO: 2+5-FU or radiation treated cells)}/Concentration of biomarkers (pg/ml) in Control cells (5-FU or radiation alone treated)]*100

MMP-3 = assay: Multiplex analysis, chemotherapy (5-FU), TR146; assay type: cell-based, human; details: for MMP-3 against chemotherapy induced levels: 5-FU, in words
Description: as §1, §2, §3

TNF-α = assay: Multiplex analysis, chemotherapy (5-FU), TR146; assay type: cell-based, human; details: for TNF-α against chemotherapy induced levels: 5-FU, in words
Description: as §1, §2, §3

VEGF = assay: Multiplex analysis, chemotherapy (5-FU), TR146; assay type: cell-based, human; details: for VEGF against chemotherapy induced levels: 5-FU, in words
Description: as §1, §2, §3

B1: SEQ ID NO 2: recombinant lectin, variant of the S. rolfsii lectin amino acid sequence (reported as Rec-2 in WO 2010/095143) (protein)
chain: TYKITVRVYQTNPDAFFHPVEKTVWKYANGGTWTITDDQHVLTMGGSGTSGTLRFHADNGESFTATFGVHNYKRWCDIVTNLAADETGMVINQQYYSQKNREEARERQLSNYQVKNAKGRNFQIVYTEAEGNDLHANLIIG
In the case of B1, the “decrease of body weight” value ([1]; G4, 0.25 mg/Animal in buccal cheek pouch) is reported as 3.61%, the “decrease of body weight” value ([1]; G5, 0.5 mg/Animal in buccal cheek pouch) is reported as 4.36% and the “decrease of body weight” value ([1]; G6, 1 mg/Animal in buccal cheek pouch) is reported as 6.8%. The “% Increase in MMP (with respect to control)” value (shortened to “% Increase in MMP”) ([2]; 0.01 μg/ml + 5FU) was “about 67%”, the MMP ([2]; 0.01 μg/ml + 5FU) was 14.1 and the “% Increase in MMP” value ([2]; 0.1 μg/ml + 5FU) was 67.5%. For the same molecule, the MMP ([2]; 0.1 μg/ml + 5FU) was 14.2, the “% Increase in MMP” value ([2]; 1 μg/ml + 5FU) was 81.5% and the MMP ([2]; 1 μg/ml + 5FU) was 15.4. For the same molecule, the “% Increase in MMP” value ([2]; 10 μg/ml + 5FU) was 79.6%, the MMP ([2]; 10 μg/ml + 5FU) was 15.2 and the “% Increase in MMP” value ([2]; 25 μg/ml + 5FU) was 104.8%. The MMP ([2]; 25 μg/ml + 5FU) was 17.3, the MMP ([2]; 50 μg/ml + 5FU) was 17.8 and the “% Increase in MMP” value ([2]; 100 μg/ml + 5FU) was 106.2%. The MMP ([2]; 100 μg/ml + 5FU) was 17.5, the “Percentage Inhibition IL-1β” value (IL-1β; 0.1 μg/ml + 5-FU (10 mM)) was 5.5% and the “Percentage Inhibition IL-1β” value (IL-1β; 10 μg/ml + 5-FU (10 mM)) was 3.6%. For the same molecule, the “Percentage Inhibition IL-1β” value (IL-1β; 25 μg/ml + 5-FU (10 mM)) was 11%, the “Percentage Inhibition IL-1β” value (IL-1β; 50 μg/ml + 5-FU (10 mM)) was 29.1% and the “Percentage Inhibition IL-1β” value (IL-1β; 100 μg/ml + 5-FU (10 mM)) was 23.5%. The “IL-1-β against chemotherapy induced levels” value (IL-1β) was “lowering of levels”, the “IL-1-β against chemotherapy induced levels” value (IL-1β; listed as test items) was “downregulation” and the “Percentage Inhibition MMP-3” value (MMP-3; 0.1 μg/ml + 5-FU (10 mM)) was 22%. For the same molecule, the “Percentage Inhibition MMP-3” value (MMP-3; 10 μg/ml + 5-FU (10 mM)) was 29.5%, the “Percentage Inhibition MMP-3” value (MMP-3; 25 μg/ml + 5-FU (10 mM)) was 30.6% and the “Percentage Inhibition MMP-3” value (MMP-3; 50 μg/ml + 5-FU (10 mM)) was 27.3%. For the same molecule, the “Percentage Inhibition MMP-3” value (MMP-3; 100 μg/ml + 5-FU (10 mM)) was 8.8%, the “MMP-3 against chemotherapy induced levels” value (MMP-3) was “lowering of levels” and the “MMP-3 against chemotherapy induced levels” value (MMP-3; listed as test items) was “downregulation”. For the same molecule, the “Percentage Inhibition TNF-α” value (TNF-α; 0.1 μg/ml + 5-FU (10 mM)) was 13.3%, the “Percentage Inhibition TNF-α” value (TNF-α; 10 μg/ml + 5-FU (10 mM)) was 10% and the “Percentage Inhibition TNF-α” value (TNF-α; 25 μg/ml + 5-FU (10 mM)) was 10%. For the same molecule, the “Percentage Inhibition TNF-α” value (TNF-α; 50 μg/ml + 5-FU (10 mM)) was 13.3%, the “Percentage Inhibition TNF-α” value (TNF-α; 100 μg/ml + 5-FU (10 mM)) was 6.6% and the “TNF-α against chemotherapy induced levels” value (TNF-α) was “lowering of levels”. The “TNF-α against chemotherapy induced levels” value (TNF-α; listed as test items) was “downregulation”, the “Percentage Inhibition VGEF” value (VEGF; 0.1 μg/ml + 5-FU (10 mM)) was 25% and the “Percentage Inhibition VGEF” value (VEGF; 10 μg/ml + 5-FU (10 mM)) was 24.4%. For the same molecule, the “Percentage Inhibition VGEF” value (VEGF; 25 μg/ml + 5-FU (10 mM)) was 28%, the “Percentage Inhibition VGEF” value (VEGF; 50 μg/ml + 5-FU (10 mM)) was 37.8% and the “Percentage Inhibition VGEF” value (VEGF; 100 μg/ml + 5-FU (10 mM)) was 41.7%. The “VEGF against chemotherapy induced levels” value (VEGF) was “lowering of levels” and the “VEGF against chemotherapy induced levels” value (VEGF; listed as test items) was “downregulation”.
